# According to paper PMC9168731:
# Tests used:
# [1] = target: S. pombe Arp2/3 complex (S. pombe) (UniProt Q9UUJ1)
# [2] = target: S. pombe Arp2/3 complex (S. pombe) (UniProt Q9UUJ1); remark: listed apart in the source
# UniProt Q9UUJ1, sequence (Q9UUJ1 whole entry, looked up, one chain of several): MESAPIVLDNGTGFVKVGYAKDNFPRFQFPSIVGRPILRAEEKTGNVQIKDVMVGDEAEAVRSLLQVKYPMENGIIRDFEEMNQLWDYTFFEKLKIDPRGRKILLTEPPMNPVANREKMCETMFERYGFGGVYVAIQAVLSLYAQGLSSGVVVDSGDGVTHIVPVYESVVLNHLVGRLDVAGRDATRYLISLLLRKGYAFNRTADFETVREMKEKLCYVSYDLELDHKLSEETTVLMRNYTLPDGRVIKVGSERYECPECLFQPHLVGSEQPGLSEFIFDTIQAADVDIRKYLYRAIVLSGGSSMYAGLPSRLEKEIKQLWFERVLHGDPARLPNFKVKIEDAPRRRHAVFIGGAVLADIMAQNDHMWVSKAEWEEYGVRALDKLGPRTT
"maximum polymerization rate, pyrene actin polymerization assay (3 μM 15% pyrene-labeled actin, 50 nM SpArp2/3 complex, 5 μM Dip1); 2.8 nM/s for reactions without Dip1 [1] [nM/s]","activation of Arp2/3 complex, pyrene actin polymerization assay (3 μM 15% pyrene-labeled actin, 50 nM SpArp2/3 complex, 5 μM Dip1) (% reduction compared to WT Dip1) [2]",Substance
8,,Dip1(N292K) (from UniProt O74771 1-374) (natural protein)
,> 60,Dip1(R301E) (from UniProt O74771 1-374) (natural protein)
20,,"Schizosaccharomyces pombe WDS protein Dip1, WT (from UniProt O74771 1-374) (natural protein)"
